The values that follow come from the DeepSol protein solubility set.

The series is described as follows: soluble on expression in E. coli; label from the status in PepcDB or PDB records.
For the sequence “MGSDKIHHHHHHMRLNLRQIEVFRAIMLTGSISGAAKLLHVSQPAVSRLISYAEQRLGLALFERIKGRLYPTPEAQRLFVEVNAVYQGVQRVNEIAEDLIENRMGHLRIACSPNLGQSLLPRAIAAFYERLPDVRIILHTMIPNVLLQAVLTQQVELGIAFLQDTHPNVESQLLYENRMVAAVPASHPFARRKTLAVRDLANQPLIGYGSDIPLGQLVRRLFSDESLVPQVKVEVQQAHVACALAQAGTGIALIDELTVAGPVWPQIVVKPIVPTLAAPVSVLHPVPTPLSRLAHAFIDTLHSLAAHA”, the “soluble on expression in E. coli” value is “not soluble”. On to “MHSFLQFLRDDNPGSLEDHLNFVPSDDLKYELGMLLSSRPLYLETDELPFVSSSVLNYGIKSSVFVVSAGEHSDSVNDEISSRILMMLQRYESRLEEPVVEYLSSDDNYSFFSVTALFFMDMVRLCIKWDKNSGEFSLDE”, for which the “soluble on expression in E. coli” value is “not soluble”. Take “MNFGESYCSFHCSWCQPLLDSLSKESCWYLNFQSVDESQFYDETYFASPKNKTPRVSGKLKEKLLQFVKTPEDLDRPRKRAIIHICRRIKKITGQDIDPEYISKLLYGLKRARRDKFRKINREIFRGLNWDFTQFEKCTFKCVLN”: the “soluble on expression in E. coli” value is recorded as “not soluble”. Regarding “MLVENLAHFSADTRFEADLVIIGGGPAGLTVARELRGAPLRVLIVESGLLEEAPQANELSTLESIGEPNAPHQIQKRIAFHGANCRSWTQDLQPYGVRCRALGGSTHAWAGKSAAFDDIDFQERAWVPHSGWPMDRSSLDPFLDRAADILNLGPNRYDDTLWTLLGISPPEPQLGTQGLRSFFWQFSRSRVDPLDIMRFGADFLRLEADNIRVLLNATATRLDLTQEGDGFRGLEIATNDGQRHTVHAKAAVIAGGGIENARLLLASTTIHANGVGNQYDLVGRFLMDHAGARIARFGGSNANQIMRRFGFYGLRNSGRTSMYMHGLAITPEMQEREHLLNSAIYFMPEHAADDPWDAVKRLLTGKSKRQVKDAMRAIAGAGLLGKGAAMKLLSSDRLPVAVKDFIVQTAIRYMPNVAADDFLSRGVPHKVTDVWIDAISEQQPDPDSRITLSEKTDRLGLPLARVNWKINADERRTIMRLGHIVESAFAQARLPKPILEPWVAEGAFNDAVIIDMAHSMGTTRMSASARSGVVDEQCQVHGVRDLYIAGSSIFPTSGHANPTLMIVAFAVRLADRIRQTLL”, the “soluble on expression in E. coli” value is given as “not soluble”.

Turning to “DSLDEQRSRYAQIKQAWDNRQMDVVEQMMPGLKDYPLYPYLEYRQITDDLMNQPAVTVTNFVRANPTLPPARTLQSRFVNELARREDWRGLLAFSPEKPGTTEAQCNYYYAKWNTGQSEEAWQGAKELWLTGKSQPNACDKLFSVWRASGKQDPLAYLERIRLAMKAGNTGLVTVLAGQMPADYQTIASAIISLANNPNTVLTFARTTGATDFTRQMAAVAFASVARQDAENARLMIPSLAQAQQLNEDQIQELRDIVAWRLMGNDVTDEQAKWRDDAIMRSQSTSLIERRVRMALGTGDRRGLNTWLARLPMEAKEKDEWRYWQADLLLERGREAEAKEILHQLMQQRGFYPMVAAQRIGEEYELKIDKAPQNVDSALTQGPEMARVRELMYWNLDNTARSEWANLVKSKSKTEQAQLARYAFNNQWWDLSVQATIAGKLWDHLEERFPLAYNDLFKRYTSGKEIPQSYAMAIARQESAWNPKVKSPVGASGLMQIMPGTATHTVKMFSIPGYSSPGQLLDPETNINIGTSYLQYVYQQFGNNRIFSSAAYNAGPGRVRTWLGNSAGRIDAVAFVESIPFSETRGYVKNVLAYDAYYRYFMGDKPTLMSATEWGRRY”, the “soluble on expression in E. coli” value is “soluble”. On to “MAVGAALPPIPEGAPVLIAGPTASGKSALALEIAERFGGVIVNADASQVYDCWRAISARPSPEEEARAPHLLYGHLPYDAPYSAGHWLREVTPLLDGTARPIIVGGTGLYFTALTEGMADIPATPPDVRAEADTLPLDRLLAGIDPATAAGLDRNNRARVQRAWEVERATGRALHLWQADTPPPPLPLARTVPLVLEVDKLWLWDRIARRFDQMLDQGALDEVAAMAARYDPALPAFKAIGVPELMAHLRGEITLDAARERASIATRQYAKRQRSWFRARMGDWHRLPVGGLEHHHHHH”, for which the “soluble on expression in E. coli” value is on record as “not soluble”. Regarding “MRMLAAERRDHLLGLLARQGKIVAKDVAAELRISEDTVRRDLRDLASEGLCQRVYGGALPVSPAVADYGARRTVAPDGKRKVASAAAGLVRPGGVVILDGGTTALAVVHALPEDLDCTVITHSPTIAAALLDHPRAEVFVLGGRLFKHSAVACGAAAVEAAQNVSADLFLLGVTGVHLEAGLTTGDAEDAAMKRALAARAADTYVLASSEKIGTASRYRVLPWEEISGLVTDTPPHDPVIEQLTAGGVDVLAADAAALEHHHHHH”, the “soluble on expression in E. coli” value is reported as “not soluble”.

Consider “MKIGILTQPLSNNYGGILQALALQTVLRSMGHETVILSREYDYPPFRLCLMRILSVLKCIVRKYILRDNRAIIANPFLHFYATDKTQVYDDNEIQAFIRKNLKCSVRLQSTWILKIYVRLHHFDAFLVGSDQVWRESFSPCITNFFLDFLSQKCRAKRIAYGASFGVEQNPISVASLNQCVELAKRFDAISVREQSGVKIMKETFHLSACQVLDPTLLLPVDFYRSFMQKSDMDSSGLVSYLLDGNEEKRNIIAVAREQLQLSQTELLLFPSRYKDEVPRFSSVSSWLSAFANADFVVTDSFHGCVFSIIFRKPFVVISNSGRGNERFFSLLDTFGLNDRLVFSYEEFVDKEEILLIEQDYTEVERKYENLKVKSLEFLFQALNEN”, for which the “soluble on expression in E. coli” value was “not soluble”. As to “MAIGGWIKLYRTIQDHWIWENPQYLKWWLDLIFMANHQDRKILFDGELKTVKVGERITSEKKLSERWEVSRNTVRKFLDLLVKDDMIELSRSRQNGTWYKVSNYAEYQNFSEIKKQRTEQRREQQAAHQTEQRTEHKQEPKEPKNLRNNNNNNKGAFIRSIWENNGFGLMSSKTMTDFDYWISDFEKIGASQKEAEQLIVKAIEIAIDANARNYNYINAILKDWEQRGFKSVEEREAARKQKKTTKKQKSNTGHSDYDDLGF”, the “soluble on expression in E. coli” value is “not soluble”.

As to “SGSNETLPDNFGKGGWKICFKIEPPATLGNGMLKISFHSDYNRKPHPDDIVEETIKDMWKRRKEVNPKMWNALKFRVDSYSTFHAQGASVVKLNLGLTDYASYQGSGSLASPLTFFQSPEEGAPERHLPLSLGNAGIVLTSDNFIILLERSEQVGEGVGRWVLPGGHPEPSHVNIPDSYLTQSYEGTRDMCLTIERELYNSILMEITEEVGLRSSELFTLQLLGMVQRERDKRPVLVGHTRTTLSKSEMEARFCCQRIHTEACRILFCDIRQVETFFQENEQIMPEHRGALQLYFESSVCQQDWKLCKE”, the “soluble on expression in E. coli” value is “soluble”. The value for “GEALDYKTPLLKALAAVDKAATEVCQLFDKNVTRVFTNLGWEQEYFLVDSSLYNARPDLCLTGRTLMGHSSAKDQQLEDHYFGSIPPRVTAFMKELEIECHKLGIPAKTRHNEVAPNQFELAPIFENCNLANDHNQLVMDLMKRIARKHHFNVLLHEKPYSSVNGSGKHNNWSLCTDTGINLFAPGKNPKGNMLFLTFLVNVLMMVYKNQDLLRASIMSASNSYRLGANEAPPAILSCFLGSQLSATLDEIVRQVGNEKMTPEEKTTLKLGIGRIPEILLDTTDRNRTSPFAFTGNRFEFRAAGSSSNCAAAMIAINAAMANQLNEFRASVEKLMEEGVGKDEAIFRLLKETIIASEAIRFEGDGYSEEWRQEAARRGLTNICHVPEALMHYVDNQSKSVLIGERIFNETELNSRLEVELEKYTMKVQIEGRVLGDLAINH” was “not soluble”.

On to “MGEAVEVMFGNGFPEIHKATSPTQTLHSNQQDCHWYEETIDDDLKWSFALNSVLHQGTSEYQDIALLDTKRFGKVLVIDGKMQSAERDEFIYHECLIHPALLFHPNSPKTVFIMGGGEGSAAREILKHTTIEKVVMCDIDQEVVDFCRRFLTVNSDAFCNKKLELVIKDAKAELEKREEKFDIIVGDLADPVEGGPCYQLYTKSFYQNILKPKLSPNGIFVTQAGPAGIFTHKEVFTSIYNTMKQVFKYVKAYTAHVPSFADTWGWVMASDHEFDVEVDEMDRRIEERVNGELMYLNAPSFVSAATLNKTISLALEKETEVYSEENARFIHGHGVAYRHI”, for which the “soluble on expression in E. coli” value is reported as “soluble”. Take “MSLGASATRILFVDDEPSILKSLRRVTRSMSAECIFVDNGRDALALMRENPFDVVVSDMRMPEMDGATLLAEIARDYPETMRLVLSGFAEDDLILAAINEGRVWGFIHKPWDDHQLIVTLQHAVTTQQMMVERALLRRTVERYTSELKESFVSFVGGSLPMQAVYNQIERAAPSNASVFITGPSGTGKELAAEAIHKLSERKNGPFIALNCAAIPTELMESEIFGHVKGAFTGAVSARDGAATQAHNGTLFLDEIGEMDISLQAKLLRFIQTGSFQKVGGTKQENVNIRFVCATNRAPLDAIANGTLREDLYYRLNVVALHLPPLNQRENDPILLANTFLQRFAAQERKELVGFSSEASSLILGYDWPGNVRQLQNCIHNVVVMSAGPLITPNDIAIALQLDPQQVATEGHHHHHH”: the “soluble on expression in E. coli” value was “not soluble”. Take “MSDPRPVVARCEGMFPADLARYEAQRTRKGGDLGHIDASRSHLNRPLLGEADWAKQAMAEIEAMRAENYADELEALQRRGRKKEIQKRMVEGPKDPWRASRHGPLREIILTAHKDWFNEIVFDGNRMDFAARERAFEDRAVAWLQQTFGDDIVHARADLDETTYHIHAVLVPRAVVKVNGATRRMLQPSIHPLIEDYEKLQDSVGAWFSAIGLARGEKRAEAIREAAAKGDPIPKKRHHCRPSDWRRRQEAEVIRQRAEVEAREAATAETAAALDARRADLAHHEERLAAEDARLSAVAATRRAEAGRLDHRVEAVVARETVADERMAEADAVLAVAEGPGAGAFDIDDAGGTPMLTERPENPSLLARLKRPVAGSDRGRARAVAALGAAWTRLRKAAGEAAEARLAREHEDLRKADEALLEVARTLPETARERIARARPTIARSLTGIGLTLRRLRGRDGGAQRDESGTGEKLEHHHHHH”: the “soluble on expression in E. coli” value is listed as “soluble”. For the sequence “ETVIMKYLLPTAAAGLLLLAAQPAMAQVKLQQSGAELVRSGTSVKLSCTASGFNIKDSYMHWLRQGPEQGLEWIGWIDPENGDTEYAPKFQGKATFTTDTSSNTAYLQLSSLTSEDTAVYYCNEGTPTGPYYFDYWGQGTTVTVSSGGGGSGGGGSGGGGSENVLTQSPAIMSASPGEKVTITCSASSSVSYMHWFQQKPGTSPKLWIYSTSNLASGVPARFSGSGSGTSYSLTISRMEAEDAATYYCQQRSSYPLTFGAGTKLELKRAAAEQKLISEEDLN”, the “soluble on expression in E. coli” value was “soluble”.

On to “FNFGASYKNFSFSAQFGASWGTYALVQTDLRQEKYDDLEYKNVSAMWKDMYVYEDVLDAGGNVVAPMNRSAKYPNLRYSAINGQASTFWKVSAASVRLRNLTVAYSLPKEWTNRIGISSCRLNLTAQNLLNFYNPYPDGVWSTWGGTYGRYPNLRKVTLGVNVSF”, for which the “soluble on expression in E. coli” value is “not soluble”. Then “MSPKSLLITGANRGIGLGLLKQFLKHKDIQIIIATCRDPSKAEELSNLKDSRLHILPLDIDCDESISKLYAEVEKLVGEDGLTVLLNNAGILLPYDVEGEKNRKTLIRQLETNSVSTALITQEFLPLLKKAAAKNGGDGYSINRAAIVNISSTAASVEKIDGTFNGPLVAYRMSKSALNSFAKSCSIDLAKYHILVTSFCPGWVKTGMGGANAMLEIEDATKTLSDNILTLGNAHHGAYLNADLTVIPN”, with “soluble”.

For the sequence “MGSSHHHHHHGGTGENLYFQGGSGTNVPLTQRITAFNNYVGNASNRDRVMSVVQFGAMALAAPAAAAGCPELSAHLSTILHGAAHYRTVTRFSQWLVVAPALTPSGIKSAIASHPNLLVGICKTISTAFFTVFLIGEELVLASKCNMLDPVLGKRFNRIRFVFLFWSNIARLVMSYLLLKSSKYDAVKDNQNEEKAKDHRRKVLGVADGVLQSMFCYTLLKSSAPAGPKYLSAALRSGKAVDIITSLAPPLLVVPSTPQGMLGLAASVPGFMMSVL”, the “soluble on expression in E. coli” value was “not soluble”. For “KPPDPPNRVPEKKVVETSAFGHHVQLVNREGKAVGFIEIKESDDEGLDIHISANSLRPGASLGFHIYEKGSCVRPDFESAGGHFNPLNKEHGFNNPMGHHAGDLPNLEVGADGKVDVIMNAPDTSLKKGSKLNILDEDGSAFIIHEQADDYLTNPSGNSGARIVCGALLGNNEKQ”, the “soluble on expression in E. coli” value is reported as “soluble”.
